Legend:
[1] = biological target: T1, CD127 (Sinobiological, 10975-H03H-50) (UniProt P16871); assay: Biacore, CD127 immobilised on CM5 chip; bivalent model
T1 sequence (looked up): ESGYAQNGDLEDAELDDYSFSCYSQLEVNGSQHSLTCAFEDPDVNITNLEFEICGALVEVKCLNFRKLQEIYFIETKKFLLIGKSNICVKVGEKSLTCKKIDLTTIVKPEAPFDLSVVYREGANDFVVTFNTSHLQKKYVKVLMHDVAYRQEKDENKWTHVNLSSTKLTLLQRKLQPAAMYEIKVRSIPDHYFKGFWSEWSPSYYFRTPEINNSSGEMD

[2] = biological target: T2, CD132 receptor (Sinobiological 10555-H08B) (UniProt P31785); assay: Biacore, CD132 injected over the CD127/IL-7 complex on the chip
T2 sequence (looked up): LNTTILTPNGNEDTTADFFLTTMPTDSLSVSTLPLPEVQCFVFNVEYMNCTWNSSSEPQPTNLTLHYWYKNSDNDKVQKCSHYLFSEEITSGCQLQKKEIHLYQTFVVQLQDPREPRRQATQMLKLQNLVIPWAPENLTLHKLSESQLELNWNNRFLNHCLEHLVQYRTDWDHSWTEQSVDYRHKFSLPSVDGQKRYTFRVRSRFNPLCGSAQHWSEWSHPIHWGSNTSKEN

[3] = biological target: T2, CD132 receptor (Sinobiological 10555-H08B); assay: Biacore, CD132 injected over immobilised CD127 + IgG4 alone; steady-state model; baseline, CD127 dimerizes with CD132 in the absence of IL-7

Row | Kd [1] | Kd [2] | Kd [3] | Substance
1 | 6.3 nM | 505 nM |  | IL-7 fused to Fc domain (IL7-Fc, CHI-HF-22007 Adipogen) (Fc fusion)
2 |  |  | 2500 nM | IgG4 alone (antibody)

From US20230071889A1
